From article PMC4186791

Experiments:
Test in all cases: two-hybrid; LexA-Ubx variant (pLexA) and B42-partner (pB42) co-transformed into S. cerevisiae EGY48 carrying p8op-LacZ; blue/white colonies on X-gal and liquid β-galactosidase (ONPG) assay after galactose induction at 30°C, reported in Miller units
[1] = molecular target: UbxIVa Pro4 (Drosophila melanogaster)
[2] = molecular target: UbxIb N103 Pro4 (Drosophila melanogaster) (UniProt P83949)
[3] = molecular target: UbxIb Δ103–216 (Drosophila melanogaster) (UniProt P83949)
UbxIb Δ103–216 (Drosophila melanogaster), sequence (P83949 other isoform, or with tags, fused parts or gaps mutant): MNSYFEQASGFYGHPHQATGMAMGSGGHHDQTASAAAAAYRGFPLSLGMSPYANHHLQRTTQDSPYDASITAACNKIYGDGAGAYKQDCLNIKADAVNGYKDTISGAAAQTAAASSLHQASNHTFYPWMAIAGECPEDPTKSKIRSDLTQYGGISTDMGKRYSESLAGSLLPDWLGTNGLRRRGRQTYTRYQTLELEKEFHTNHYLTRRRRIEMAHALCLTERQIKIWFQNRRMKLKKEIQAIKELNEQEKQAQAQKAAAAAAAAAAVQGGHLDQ

Ribosomal protein L22, sequence (P50887 whole entry): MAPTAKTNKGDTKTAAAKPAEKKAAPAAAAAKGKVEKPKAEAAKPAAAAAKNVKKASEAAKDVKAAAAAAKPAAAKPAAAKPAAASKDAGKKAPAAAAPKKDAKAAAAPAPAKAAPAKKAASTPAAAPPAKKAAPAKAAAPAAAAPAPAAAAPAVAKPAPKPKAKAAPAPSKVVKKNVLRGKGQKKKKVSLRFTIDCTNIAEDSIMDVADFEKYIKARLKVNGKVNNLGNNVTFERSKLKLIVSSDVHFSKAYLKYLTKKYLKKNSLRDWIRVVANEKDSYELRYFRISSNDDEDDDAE
Dishevelled, sequence (P51140 whole entry): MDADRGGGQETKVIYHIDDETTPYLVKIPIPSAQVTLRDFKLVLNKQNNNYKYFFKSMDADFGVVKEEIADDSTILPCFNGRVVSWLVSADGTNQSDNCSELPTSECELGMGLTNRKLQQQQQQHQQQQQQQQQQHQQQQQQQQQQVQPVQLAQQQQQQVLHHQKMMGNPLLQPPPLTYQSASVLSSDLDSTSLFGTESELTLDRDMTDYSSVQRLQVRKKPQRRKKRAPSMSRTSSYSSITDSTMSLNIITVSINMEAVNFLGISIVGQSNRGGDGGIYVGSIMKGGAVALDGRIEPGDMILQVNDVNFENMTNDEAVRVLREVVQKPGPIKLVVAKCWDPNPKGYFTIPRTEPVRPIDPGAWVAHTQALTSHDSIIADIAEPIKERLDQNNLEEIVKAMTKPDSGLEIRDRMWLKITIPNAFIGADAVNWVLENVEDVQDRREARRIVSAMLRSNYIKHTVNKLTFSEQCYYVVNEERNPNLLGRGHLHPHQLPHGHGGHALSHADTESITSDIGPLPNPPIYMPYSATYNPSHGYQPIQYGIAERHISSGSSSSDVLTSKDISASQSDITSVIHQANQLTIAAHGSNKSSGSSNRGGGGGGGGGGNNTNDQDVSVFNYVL
14-3-3ε, sequence (P92177 whole entry): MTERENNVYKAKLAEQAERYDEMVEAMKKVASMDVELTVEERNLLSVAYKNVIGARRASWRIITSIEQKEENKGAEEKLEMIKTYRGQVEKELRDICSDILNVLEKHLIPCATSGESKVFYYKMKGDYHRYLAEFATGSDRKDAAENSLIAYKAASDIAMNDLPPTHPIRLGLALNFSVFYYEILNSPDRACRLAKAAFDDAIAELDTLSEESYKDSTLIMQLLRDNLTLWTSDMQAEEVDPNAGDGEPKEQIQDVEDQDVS
UbxIb N103 Pro4 (Drosophila melanogaster), sequence (P83949 other isoform, or with tags, fused parts or gaps amino acids 2–102 removed (N103) | A226P | Q233P): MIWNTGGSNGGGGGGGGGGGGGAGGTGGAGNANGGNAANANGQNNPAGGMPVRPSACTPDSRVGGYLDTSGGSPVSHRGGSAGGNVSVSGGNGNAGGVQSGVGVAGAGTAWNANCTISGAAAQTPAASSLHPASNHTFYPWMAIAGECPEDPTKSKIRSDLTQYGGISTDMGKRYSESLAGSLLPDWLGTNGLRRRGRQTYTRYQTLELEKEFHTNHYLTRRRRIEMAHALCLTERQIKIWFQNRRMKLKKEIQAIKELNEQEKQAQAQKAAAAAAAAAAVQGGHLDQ

Row | percent of reporter signal lost relative to UbxIb Pro4 [1] [%] | percent of reporter signal lost relative to UbxIb Pro4 [2] [%] | percent of reporter signal lost relative to UbxIb Pro4 [3] [%] | Substance
1 | > 59 | – | – | 14-3-3ε (from UniProt P92177 1-262) (natural protein)
2 | > 59 | > 59 | > 59 | Apontic (natural protein)
3 | > 59 | – | – | Dishevelled (from UniProt P51140 1-623) (natural protein)
4 | > 59 | – | – | Ribosomal protein L22 (from UniProt P50887 1-299) (natural protein)
